# B1: combination of tiling segments 2, 5, 8, and 11: SEQ ID NOS: 42, 45, 48, 51 applied together (nucleic acid, listed as Amaranthus palmeri)
# chain 1: CACCAACCCACTTTCTCTTTGCCCACCAAAACTTTGGTTTGGTAAGAACTAAGCCCTCTTCTTTCCCTTCTCTCTCTTAAAAGCCTAAAATCCACCTAACTTTTTCAGCCAACAAACAACGCCAAATTCAGAGGAAGAATAATGATGGCTCAAGCTACTACCATCAACAATGGTGTCCATACTGGTCAATTGCACCATACTTTACCCAAAACCCAGTTACCCAAATCTTCAAAAACTCTTAATT
# chain 2: GAGGGTTGTGGTGGTCTGTTTCCTGTTGGTAAAGATGGAAAGGAAGAGATTCAACTTTTCCTTGGTAATGCAGGAACAGCGATGCGCCCATTGACAGCTGCGGTTGCCGTTGCTGGAGGAAATTCAAGTTATGTGCTTGATGGAGTACCAAGAATGAGGGAGCGCCCCATTGGGGATCTGGTAGCAGGTCTAAAGCAACTTGGTTCAGATGTAGATTGTTTTCTTGGCACAAATTGCCCTCCTGTTCGGG
# chain 3: ACAAGCAGTTTACAGGGTGATGTAAAATTTGCCGAAGTTCTTGAGAAGATGGGTTGCAAGGTCACCTGGACAGAGAATAGTGTAACTGTTACTGGACCACCCAGGGATTCATCTGGAAAGAAACATCTGCGTGCTATCGACGTCAACATGAACAAAATGCCAGATGTTGCTATGACTCTTGCAGTTGTTGCCTTGTATGCAGATGGGCCCACCGCCATCAGAGATGTGGCTAGCTGGAGAGTGAAGGAAA
# chain 4: TAATTATGAAATTCTTTGTATTATGTTTGTGAGATTTGAAGTAGCTTATAAATTACAATGTACTAAAGTCTAGAAATAAGTTATGTATCTTTTAAATCAATGAGAAATGCATACTTGAAAGGCTTGACCTTGTATTTGTGACCTAAAGAGTACTAACTTTGGAGTTTCCAACTCATTTGTTTATCTCATTTTTTTTTAATTTTTGATTTAAATTGTTTATTTTTATGAGTAATCATGTATCTTTCTTATTCTAACCAAATGTAATACTCCTTC
# B2: combination of tiling segments 7, 8, and 9: SEQ ID NOS: 47, 48, 49 applied together (nucleic acid, listed as Amaranthus palmeri)
# chain 1: TTGAAATGACAATAAAGTTGATGGAACGCTTTGGAGTATCCGTAGAACATAGTGATAGTTGGGACAGGTTCTACATTCGAGGTGGTCAGAAATACAAATCTCCTGGAAAGGCATATGTTGAGGGTGATGCTTCAAGTGCTAGCTACTTCCTAGCCGGAGCCGCCGTCACTGGTGGGACTGTCACTGTCAAGGGTTGTGGAACAAGCAGTTTACAGGGTGATGTAAAATTTGCCGAAGTTCTTGAGAAGAT
# chain 2: B1 chain 3
# chain 3: AGATGGGCCCACCGCCATCAGAGATGTGGCTAGCTGGAGAGTGAAGGAAACCGAACGGATGATTGCCATTTGCACAGAACTGAGAAAGCTTGGGGCAACAGTTGAGGAAGGATCTGATTACTGTGTGATCACTCCGCCTGAAAAGCTAAACCCCACCGCCATTGAAACTTATGACGATCACCGAATGGCCATGGCATTCTCTCTTGCTGCCTGTGCAGATGTTCCCGTCACTATCCTTGATCCGGGATGC
# B3: 201 nucleotide dsRNA polynucleotide: dsRNA to positions 1724-1923 of tomato PDS mRNA (SEQ ID NO:59) (nucleic acid)
# chain: TCGCAGCGACTCAGAAATTATTGATGCAACGATGAAGGAACTAGCAACGCTTTTTCCTGATGAAATTTCAGCAGATCAAAGCAAAGCAAAAATATTGAAGTACCATGTTGTCAAAACTCCGAGGTCTGTTTATAAAACTGTGCCAGGTTGTGAACCCTGTCGGCCTTTACAAAGATCCCCAATAGAGGGGTTTTATTTAG
# B4: HPPD anti-sense ssDNA oligonucleotides: 8 HPPD anti-sense ssDNA oligonucleotides (SEQ ID NOS:141-148) (nucleic acid)
# antisense 1: TCCGTAGCTTACATACCGAAG
# antisense 2: TCCAAGTGAATAGGAGAAACA
# antisense 3: AGCAGCTTCTGCGTCTTCTAC
# antisense 4: ACAGCACGCACGCCAAGACCG
# antisense 5: CGATGTAAGGAATTTGGTAAA
# antisense 6: CGAGGGGATTGCAGCAGAAGA
# antisense 7: GTAGGAGAATACGGTGAAGTA
# antisense 8: GACCCCAAGAAAATCGTCTGC
# modifications: DNA, backbone and methylation of C not given here
# Columns and labels:
# Format in all cases: in vivo
# [1] = system: Glyphosate-resistant Palmer amaranth plants having 49 or 63 copies EPSPS; assay: salicylic acid pretreatment before dsRNA and glyphosate (Example 15); conditions: 15 millimolar SA 1, 5, or 24 hours before dsRNA; 7 days after glyphosate
# Experimental: Salicylic acid (SA) induces virus resistance in tobacco; see, e.g., Chivasa et al. (1997) Plant Cell, 19:547-557. Glyphosate-resistant Palmer amaranth plants having 49 or 63 copies EPSPS were pretreated with 15 millimolar SA. A solution of the four oligonucleotide-size “short” EPSPS dsRNA molecules (described in Example 1) was applied by hand at 1, 5, or 24 hours after treatment with SA, followed 72 hours later by spraying with glyphosate (1682 g acid equivalent per hectare of Roundup® WeatherMAX® brand herbicide).
# [2] = system: glyphosate-resistant Palmer amaranth plants having 16 copies of EPSPS; assay: EPSPS tiling-segment polynucleotides, plant height 11 days after herbicide (Example 21); conditions: 0.01 nanomole DNA/plant; glyphosate 840 g ae/ha 48 hours later
# Source text: Twelve dsRNAs of approximately 250 bp each and having one strand of the dsRNA corresponding to the EPSPS tiled DNA sequences of SEQ ID NOS:41-52 (Table 8) were designed to cover in a tiling fashion the full coding sequence and part of the 5′ and 3′ untranslated regions of the Palmer amaranth EPSPS gene, as depicted in FIG. 25A.
# The four oligonucleotide-size “short” EPSPS dsRNA molecules as described in Example 1 and FIG. 1 are located in the tiling segments 2, 3, 4, and 8 respectively, and are shown as light grey bars within those segments. The polynucleotides were synthesized in vitro transcription using a pBR322 vector with the EPSPS polynucleotides inserted at EcoRI and BamHI cloning sites; plasmid DNA was isolated with Qiagen Maxi prep kits and digested with EcoRI and BamHI restriction enzymes. The digested DNA solution was used in the treatment of the plants without further purification. […]
# [3] = system: phytoene desaturase (PDS) gene in tomato (Solanum lycopersicum); assay: topical PDS dsRNA on tomato, bleaching and stunting (Example 25); conditions: 2.5 micromolar, 40 microliters per plant
# Source text: A 201 nucleotide dsRNA polynucleotide with an anti-sense strand capable of hybridizing to the RNA encoded by the sequence […] […] […] (SEQ ID NO:60) which correspond to the nucleotides at positions 1724-1923 of the mRNA transcribed from the tomato PDS gene sequence (SEQ ID NO:59) was synthesized by RT PCR using oligonucleotide primers with the sequences […] (SEQ ID NO:61, sense primer) and […] (SEQ ID NO:62, anti-sense primer). A 2.5 micromolar dsRNA solution was made with the 201 nucleotide dsRNA polynucleotide (SEQ ID NO:60) in 0.01% SILWET L-77® brand surfactant in 5 millimolar sodium phosphate buffer, pH 6.8.
# Three-week old tomato seedlings were treated as follows. Two fully expanded leaves were dipped into a freshly made 0.1% SILWET L-77® brand surfactant solution in double-distilled water for a few seconds. The leaves were allowed to dry for 30 minutes to 1 hour. Each plant was then treated by applying 20 microliters dsRNA solution to the top surface of two SILWET® brand surfactant-treated leaves (total 40 microliters per plant). Control plants were treated with buffer. The plants were kept in a growth chamber for observation. FIG. 30 depicts the systemic silencing of the target gene PDS as evidenced by bleaching of the dsRNA-treated plants 30 days after topical treatment.
# [4] = system: Glyphosate-sensitive Palmer amaranth (Amaranthus palmeri) plants; assay: HPPD, PPO and TIF anti-sense ssDNA with mesotrione, fomesafen or atrazine, plant height (Example 28, Tables 18 and 19); conditions: four days after herbicide treatment
# Experimental: The herbicidal activity of ssDNA polynucleotides that target the enzymes […] and protoporphyrinogen oxidase (PPO), and a transcription initiation factor (TIF), and their effect on the herbicide activity when used in combination with the herbicides mesotrione, fomesafen, and atrazine in Palmer amaranth was investigated.
# Glyphosate-sensitive Palmer amaranth (Amaranthus palmeri) plants were grown in 4-inch square pots with Sun Gro® Redi-Earth seedling mix containing 3.5 kg/cubic meter Osmocote® 14-14-14 fertilizer in a greenhouse with 14 h photoperiod and a daytime temperature of 30 degrees Celsius and night temperature of 20 degrees Celsius. The plants were sub-irrigated as necessary.
# Some plants were left untreated and were used as controls. […] Crop oil concentrate (COC) at 1% was added to all herbicide treatments.
# Plant height was determined at four days after herbicide treatment. Data were collected from one experiment with four replications per treatment.
molecule,measurement,setting,value
O=C(O)c1ccccc1O [Salicylic acid],improvement of the effects of the dsRNAs and glyphosate activity (plant height),[1],No improvement
B1,"efficacy (above-ground height 11 days after herbicide; FIGS. 25B, 25C)",[2],greatest efficacy
B2,"efficacy (above-ground height 11 days after herbicide; FIGS. 25B, 25C)",[2],greatest efficacy
B3,growth compared to control plants,[3],severely stunted
same,systemic silencing of PDS (FIG. 30),[3]; 30 days after treatment,bleaching
B4,growth reduction relative to the buffer-surfactant control,[4],32%

# From patent publication US9121022B2, “Method for controlling herbicide-resistant plants” (priority 2010, dated 2015)
